According to publication PMC3431356, “Staphylococcus aureus Methicillin-Resistance Factor fmtA Is Regulated by the Global Regulator SarA”:

Assays:
[1] = target: T1, SarA (Staphylococcus aureus MRSA252, UniProt Q6GJ52 1-124); assay: EMSA; EMSA: 10 mM Tris-HCl pH 7.5, 50 mM KCl, 1 mM DTT, 5 mM MgCl2, 2.5% glycerol, 1 ug poly(dI-dC), 200 ng herring sperm DNA, 30 min, temperature not stated, 6% native gel; Kd = protein at 50% bound DNA. Footprinting: same buffer, 37 C, DNase I at 25 C; conditions: protein: recombinant; tags: none (pET22b, pelB leader removed); chain copies: 2; label: 5'-32P; blunt
T1 sequence: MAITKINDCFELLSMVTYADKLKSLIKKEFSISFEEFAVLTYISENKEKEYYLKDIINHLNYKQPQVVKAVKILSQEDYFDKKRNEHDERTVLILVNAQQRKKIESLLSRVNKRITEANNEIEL

[2] = target: T1, SarA; assay: EMSA; printed as >=1.8 uM; no saturation up to 3.6 uM, binding stated; EMSA: 10 mM Tris-HCl pH 7.5, 50 mM KCl, 1 mM DTT, 5 mM MgCl2, 2.5% glycerol, 1 ug poly(dI-dC), 200 ng herring sperm DNA, 30 min, temperature not stated, 6% native gel; Kd = protein at 50% bound DNA. Footprinting: same buffer, 37 C, DNase I at 25 C; conditions: protein: recombinant; tags: none (pET22b, pelB leader removed); chain copies: 2; label: 5'-32P
[3] = target: T1, SarA; assay: EMSA; no binding up to 1.8 uM SarA; EMSA: 10 mM Tris-HCl pH 7.5, 50 mM KCl, 1 mM DTT, 5 mM MgCl2, 2.5% glycerol, 1 ug poly(dI-dC), 200 ng herring sperm DNA, 30 min, temperature not stated, 6% native gel; Kd = protein at 50% bound DNA. Footprinting: same buffer, 37 C, DNase I at 25 C; conditions: protein: recombinant; tags: none (pET22b, pelB leader removed); chain copies: 2; label: 5'-32P

B1: Pagr 45-bp (dsDNA)
DNA 1: GTAAATTTTTTTATGTTAAAATATTAAATACAAATTACATTTAAC
DNA 2: GTTAAATGTAATTTGTATTTAATATTTTAACATAAAAAAATTTAC
- Kd [1]: ~400 nM

B2: seqA1 (dsDNA)
DNA 1: CATTATAGCCTTAAATTGTAGTACTTTATAGTAAAAAATACAAATGTTATGTC
DNA 2: GACATAACATTTGTATTTTTTACTATAAAGTACTACAATTTAAGGCTATAATG
- Kd [2]: > 1800 nM

B3: seqB1 (dsDNA)
DNA 1: CATATTAGAAAAACTTATTACTATGTAGCGTAAAGC
DNA 2: GCTTTACGCTACATAGTAATAAGTTTTTCTAATATG
- binding result [3]: no binding
